Experimental findings from patent publication US20230057987A1 (published 2023) are described below.

To fix the notation:
T1: CT45 (CT45A1, A2, A3, A5 to A10); CT45-IP peptide on HLA-A*02:01 (human)
T1 peptide: KIFEMLEGV

T2: similar peptide SP-05-0007, source protein not stated peptide on HLA-A*02:01 (human)
T2 peptide: KIFPALCTV

T3: similar peptide SP-05-0004, source protein not stated peptide on HLA-A*02:01 (human)
T3 peptide: KIWEWLVGV

T4: similar peptide SP-05-0010, source protein not stated peptide on HLA-A*02:01 (human)
T4 peptide: RIFETVNSV

T5: CT45-IP alanine variant, position 7 peptide on HLA-A*02:01 (human)
T5 peptide: KIFEMLAGV

T6: CT45-IP alanine variant, position 5 peptide on HLA-A*02:01 (human)
T6 peptide: KIFEALEGV

T7: similar peptide SP-05-0008, source protein not stated peptide on HLA-A*02:01 (human)
T7 peptide: KILDELEKV

T8: similar peptide SP-05-0005, source protein not stated peptide on HLA-A*02:01 (human)
T8 peptide: KIEEFLEAV

T9: similar peptide SP-05-0001, source protein not stated peptide on HLA-A*02:01 (human)
T9 peptide: HIMEHLEGV

T10: similar peptide SP-05-0009, source protein not stated peptide on HLA-A*02:01 (human)
T10 peptide: KIIDLLPKV

T11: similar peptide SP-05-0003, source protein not stated peptide on HLA-A*02:01 (human)
T11 peptide: KVTEMLVNV

T12: CT45-IP alanine variant, position 4 peptide on HLA-A*02:01 (human)
T12 peptide: KIFAMLEGV

T13: CT45-IP alanine variant, position 3 peptide on HLA-A*02:01 (human)
T13 peptide: KIAEMLEGV

T14: CT45-IP alanine variant, position 8 peptide on HLA-A*02:01 (human)
T14 peptide: KIFEMLEAV

T15: CT45-IP alanine variant, position 1 peptide on HLA-A*02:01 (human)
T15 peptide: AIFEMLEGV

T16: similar peptide SP-05-0006, source protein not stated peptide on HLA-A*02:01 (human)
T16 peptide: KIAELLENV

T17: similar peptide SP-05-0002, source protein not stated peptide on HLA-A*02:01 (human)
T17 peptide: KIFSGLLKV

B1: TCR-11 (TCR, V domains shown)
Valpha: IQVEQSPPDLILQEGANSTLRCNFSDSVNNLQWFHQNPWGQLINLFYIPSGTKQNGRLSATTVATERYSLLYISSSQTTDSGVYFCAVNTGTASKLTFGTGTRLQVTL
Vbeta: GVTQTPKFQVLKTGQSMTLQCAQDMNHNSMYWYRQDPGMGLRLIYYSASEGTTDKGEVPNGYNVSRLNKREFSLRLESAAPSQTSVYFCASSPRGQGRSYEQYFGPGTRLTVT
B2: TCR-5 (TCR, V domains shown)
Valpha: QQLNQSPQSMFIQEGEDVSMNCTSSSIFNTWLWYKQDPGEGPVLLIALYKAGELTSNGRLTAQFGITRKDSFLNISASIPSDVGIYFCAGGYNYGQNFVFGPGTRLSVLP
Vbeta: GVTQTPKHLITATGQRVTLRCSPRSGDLSVYWYQQSLDQGLQFLIQYYNGEERAKGNILERFSAQQFPDLHSELNLSSLELGDSALYFCASSAGLAGGYEQYFGPGTRLTVT
B3: TCR-7 (TCR, V domains shown)
Valpha: QTVTQSQPEMSVQEAETVTLSCTYDTSESDYYLFWYKQPPSRQMILVIRQEAYKQQNATENRFSVNFQKAAKSFSLKISDSQLGDAAMYFCTFRYGGATNKLIFGTGTLLAVQP
Vbeta: GVIQSPRHLIKEKRETATLKCYPIPRHDTVYWYQQGPGQDPQFLISFYEKMQSDKGSIPDRFSAQQFSDYHSELNMSSLELGDSALYFCASRGGWAETPDTQYFGPGTRLTVL
B4: TCR-6 (TCR, V domains shown)
Valpha: QKEVEQDPGPLSVPEGAIVSLNCTYSNSAFQYFMWYRQYSRKGPELLMYTYSSGNKEDGRFTAQVDKSSKYISLFIRDSQPSDSATYLCAMSGNSGARDYGNNRLAFGKGNQVVVIP
Vbeta: EVTQTPKHLVMGMTNKKSLKCEQHMGHRAMYWYKQKAKKPPELMFVYSYEKLSINESVPSRFSPECPNSSLLNLHLHALQPEDSALYLCASATWEEAGPYNEQFFGPGTRLTVL
B5: TCR-10 (TCR, V domains shown)
Valpha: QNIDQPTEMTATEGAIVQINCTYQTSGFNGLFWYQQHAGEAPTFLSYNVLDGLEEKGRFSSFLSRSKGYSYLLLKELQMKDSASYLCAVPAPYTGTASKLTFGTGTRLQVTL
Vbeta: GVTQTPKFQVLKTGQSMTLQCAQDMNHNSMYWYRQDPGMGLRLIYYSASEGTTDKGEVPNGYNVSRLNKREFSLRLESAAPSQTSVYFCASSEGYSTYNEQFFGPGTRLTVL

Values joined by “and” are separate entries in the source; they are usually repeats but may differ in a detail not shown here. Identical values can stand only once.

For the first test, the target named is T1, CT45 (CT45A1, A2, A3, A5 to A10); …. The test is described as follows: CT45-IP-HLA-A*02 dextramer on T cells with TCR mRNA; TCR found by tetramer sorting; full-length, on cells.
On to B1, for which the dextramer-positive events was determined as 6.6%.
Still for that read-out and setting: with B2 the figure was 61.1%.
Regarding B3, the dextramer-positive events worked out at 53.3%.
Still for that read-out and setting: as for B4, the figure is 2.9%; as for B5, 52.8%.

The next test shares this target. The test is described as follows: luciferase release, 24 h, 1:1; CD8+ T cells with TCR mRNA, T2 cells with titrated peptide; full-length, on cells.
The molecule B1 showed an EC50 of peptide of 59.5 nM.
Same read-out and setting: with B2 the figure was 1.32 nM; with B3, 0.48 nM.
Still for that read-out and setting: as for B4, the figure is 3.25 nM; as for B5, 8.75 nM.

A further test has as its target CT45-IP antigenic peptide (…) in complex with HLA-A*02 presented on cells (peptide-loaded T2 cells; NCIH1703 and A375 tumor cells) (human). Kind of test: cell-based or functional assay.
As for B1, the EC50, half maximal killing capacity (functional avidity; CT45-IP peptide titration on T2 cells, luciferase release) was determined as 59.5 nM.
Turning to B2, the EC50, half maximal killing capacity (functional avidity; CT45-IP peptide titration on T2 cells, luciferase release) was 1.32 nM.
The same measure, in the same setting: as for B3, the figure is 0.48 nM; as for B4, 3.25 nM; as for B5, 8.75 nM.

Another test concerns the target CT45-IP-HLA-A*02 dextramer (human). Kind of test: flow cytometry, dextramer staining of TCR-mRNA electroporated T cells, gated on CD3+. (A flow cytometer gives signals particle by particle.)
As for B1, the surface expression, % positive events by CT45-IP-HLA-A2*02 dextramer staining is 0.53% and 6.6%.
Same read-out and setting: as for B2, the figure is 55.5% and 61.1%; as for B3, 53.3%.
The same measure, in the same setting: with B4 the figure was 2.9%.
Regarding B5, the surface expression, % positive events by CT45-IP-HLA-A2*02 dextramer staining worked out at 52.8%.

The target of a further test is T2, similar peptide SP-05-0007, source …. Kind of test: killing.
B1: the binding result is “no recognition”.
Take B2: the binding result is listed as “no recognition”.
Consider B3, for which the binding result is “no recognition”.
Same read-out and setting: as for B4, the entry is “no recognition”; as for B5, “no recognition”.

Another test concerns the target T3, similar peptide SP-05-0004, source …. Kind of test: killing.
As for B1, the binding result is listed as “no recognition”.
Still for that read-out and setting: as for B2, the entry is “no recognition”.
On the same count and under the same terms, as for B3, the entry is “no recognition”.
The same measure, in the same setting: with B5 the entry was “no recognition”.

For a further test, the target named is T4, similar peptide SP-05-0010, source …. The test is described as follows: killing.
Take B1: the binding result is “no recognition”.
On the same count and under the same terms, as for B2, the entry is “no recognition”.
For the molecule B3, the binding result is on record as “no recognition”.
Same read-out and setting: as for B4, the entry is “no recognition”; as for B5, “no recognition”.

Another test has as its target T5, CT45-IP alanine variant, position 7 …. The test is described as follows: killing.
Take B1: the binding result was “recognises”.
On to B4, for which the binding result is recorded as “recognises”.

The next test has as its target T6, CT45-IP alanine variant, position 5 …. The test is described as follows: killing.
As to B2, the binding result was “recognises”.
On to B3, for which the binding result is listed as “recognises”.
Consider B4, for which the binding result was “recognises”.

Another test addresses T7, similar peptide SP-05-0008, source …. Kind of test: killing.
With B1, the binding result was “no recognition”.
As to B2, the binding result is reported as “no recognition”.
With B3, the binding result is “no recognition”.
Same read-out and setting: with B4 the entry was “no recognition”.
B5: the binding result is on record as “no recognition”.

Another test has as its target T8, similar peptide SP-05-0005, source …. Kind of test: killing.
As to B1, the binding result is “no recognition”.
As for B2, the binding result is recorded as “no recognition”.
Still for that read-out and setting: with B3 the entry was “no recognition”.
As for B4, the binding result is “no recognition”.
Same read-out and setting: as for B5, the entry is “no recognition”.

For a further test, the target named is T9, similar peptide SP-05-0001, source …. Kind of test: killing.
Regarding B1, the binding result is reported as “no recognition”.
As to B2, the binding result is given as “no recognition”.
As to B3, the binding result is “no recognition”.
The same measure, in the same setting: with B4 the entry was “no recognition”; with B5, “no recognition”.

The target in a further test is T10, similar peptide SP-05-0009, source …. The test is described as follows: killing.
Consider B1, for which the binding result was “no recognition”.
On the same count and under the same terms, with B2 the entry was “no recognition”; with B3, “no recognition”; with B4, “no recognition”.
Consider B5, for which the binding result is “no recognition”.

A further test has as its target T11, similar peptide SP-05-0003, source …. Kind of test: killing.
B1: the binding result is recorded as “no recognition”.
Still for that read-out and setting: with B2 the entry was “no recognition”; with B3, “no recognition”.
For the molecule B4, the binding result is listed as “no recognition”.
With B5, the binding result is given as “no recognition”.

In the next test the target is T12, CT45-IP alanine variant, position 4 …. Kind of test: killing.
As to B2, the binding result is “recognises”.
Regarding B5, the binding result was “recognises”.

A further test addresses T13, CT45-IP alanine variant, position 3 …. The test is described as follows: killing.
On to B3, for which the binding result is given as “recognises”.
On to B5, for which the binding result was “recognises”.

The target in another test is T14, CT45-IP alanine variant, position 8 …. The test is described as follows: killing.
For B3, the binding result is “recognises”.
The same measure, in the same setting: as for B4, the entry is “recognises”; as for B5, “recognises”.

A further test deals with T15, CT45-IP alanine variant, position 1 …. The test is described as follows: killing.
As to B2, the binding result is “recognises”.
On the same count and under the same terms, as for B5, the entry is “recognises”.

The next test addresses T16, similar peptide SP-05-0006, source …. The test is described as follows: killing.
With B1, the binding result was “no recognition”.
The same measure, in the same setting: with B2 the entry was “no recognition”; with B3, “no recognition”.
Still for that read-out and setting: as for B4, the entry is “no recognition”; as for B5, “no recognition”.

In another test the target is T17, similar peptide SP-05-0002, source …. Kind of test: killing.
As for B1, the binding result is recorded as “no recognition”.
For the molecule B2, the binding result was “no recognition”.
As for B3, the binding result is recorded as “no recognition”.
On the same count and under the same terms, with B4 the entry was “no recognition”.
As to B5, the binding result is listed as “no recognition”.
